# Literature values as cited in article PMC12493192.
# Like-named read-outs stand apart in the source and are kept apart here.
# Columns and labels:
# GC-C (Homo sapiens) [1] = biological target: GC-C (Homo sapiens) (UniProt P25092)
# GC-C (Homo sapiens) [2] = biological target: GC-C (Homo sapiens) (UniProt P25092); remark: listed apart in the source
# Sequence of UniProt P25092 (P25092 24-430): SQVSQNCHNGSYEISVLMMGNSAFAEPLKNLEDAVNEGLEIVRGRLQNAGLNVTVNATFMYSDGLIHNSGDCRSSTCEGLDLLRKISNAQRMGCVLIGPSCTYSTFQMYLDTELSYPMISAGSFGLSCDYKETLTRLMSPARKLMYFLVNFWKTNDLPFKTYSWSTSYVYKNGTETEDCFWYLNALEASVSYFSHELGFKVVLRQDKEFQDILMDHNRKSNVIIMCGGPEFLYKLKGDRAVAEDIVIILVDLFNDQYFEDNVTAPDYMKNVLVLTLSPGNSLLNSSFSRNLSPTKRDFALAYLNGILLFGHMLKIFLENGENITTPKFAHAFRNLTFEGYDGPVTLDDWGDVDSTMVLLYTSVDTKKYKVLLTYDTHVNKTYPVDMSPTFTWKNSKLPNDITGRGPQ
Substance,Kd (GC-C (Homo sapiens) [1]) [nM],Kd (GC-C (Homo sapiens) [2]) [nM]
uroguanylin (from UniProt Q16661),1,–
guanylin (from UniProt Q02747),–,10
